Data from article PMC6981877, “Conformational Plasticity of the Active Site Entrance in E. coli Aspartate Transcarbamoylase and Its Implication in Feedback Regulation” (International Journal of Molecular Sciences, 2020).

B1: E. coli aspartate transcarbamoylase (ATCase) catalytic chain (enzyme, E. coli (endogenous in BL21(DE3)), UniProt P0A786 1-311, looked up)
chain: MANPLYQKHIISINDLSRDDLNLVLATAAKLKANPQPELLKHKVIASCFFEASTRTRLSFETSMHRLGASVVGFSDSANTSLGKKGETLADTISVISTYVDAIVMRHPQEGAARLATEFSGNVPVLNAGDGSNQHPTQTLLDLFTIQETQGRLDNLHVAMVGDLKYGRTVHSLTQALAKFDGNRFYFIAPDALAMPQYILDMLDEKGIAWSLHSSIEEVMAEVDILYMTRVQKERLDPSEYANVKAQFVLRASDLHNAKANMKVLHPLPRVDEIATDVDKTPHAWYFQQAGNGIFARQALLALVLNRDLVL
notes: Aspartate transcarbamoylase catalytic chain, E. coli, wild type, native form lacking the His tag; Crystallised as part of the native holoenzyme; also called catalytic subunit; source: endogenous, extracted from E. coli BL21(DE3), purified as native holoenzyme (Ni-NTA, HiLoad Superdex 200)
B2: E. coli aspartate transcarbamoylase (ATCase) regulatory chain (natural protein, E. coli (endogenous in BL21(DE3)), UniProt P0A7F3 1-153, looked up)
chain: MTHDNKLQVEAIKRGTVIDHIPAQIGFKLLSLFKLTETDQRITIGLNLPSGEMGRKDLIKIENTFLSEDQVDQLALYAPQATVNRIDNYEVVGKSRPSLPERIDNVLVCPNSNCISHAEPVSSSFAVRKRANDIALKCKYCEKEFSHNVVLAN
notes: Aspartate transcarbamoylase regulatory chain, E. coli, wild type, native; also called regulatory subunit; source: endogenous, extracted from E. coli BL21(DE3), purified as native holoenzyme (Ni-NTA, HiLoad Superdex 200)

Target: the molecule itself
Assay: crystal structure; native wild-type apo holoenzyme extracted from E. coli BL21(DE3); hanging drop, 0.1 M MES pH 6.0, 10% glycerol, 10% PEG 8000; space group R32, one catalytic and one regulatory chain in the asymmetric unit; 2.06 Å

Protein | binding result
B1 | binds
B2 | binds
